From patent US20060233785A1, “Immunointeractive molecules and uses thereof” (priority 2001, published 2006)
Positions count from the first letter of the chain named.

Experiments:
[1] = test system: Hev b 6-specific mAb 1A5.4; assay: Western blotting of rHev b 6 forms with Hev b 6-specific mAb (Example 8); type: binding, mouse
Method: FIG. 6 is an image of sulphonation abolishing the IgE reactivity of rHev b 6. rHev b 6 (A) and sulphonated rHev b 6 (B) were resolved by 16% SDS-PAGE under non-reducing conditions. Gels were either stained with Coomassie Brilliant Blue (1) or transferred to nitrocellulose. Strips with transferred protein were incubated with the Hev b 6-specific mAb 1A5.4 and binding detected (2). Strips with transferred protein were also incubated with sera from two latex allergic, Hev b 6 sensitized subjects (3 and 4) and one non-latex-allergic, atopic subject (5). The presence or absence of IgE binding was then detected. […] Plates were coated with rHev b 6 and sulphonated rHev b 6 and the presence or absence of IgE-binding detected. As a positive control the Hev b 6-specific mAb 1A5 was used. NB indicates no binding of IgE was detected.
Four μg of rHev b 6 or sulphonated rHev b 6 were separated on 16% sodium dodecyl sulphate (SDS) polyacrylamide gels with 4% stacking gel. Electrophoresis was performed at 125V for 2 h on a Novex Xcell II Mini-Cell system (Novex, CA, USA). Proteins were visualized with Coomassie Brilliant Blue R-250 (Sigma). The separated proteins were electrophoretically transferred to nitro-cellulose membranes (BA 0.45μ, Schleicher and Schuell, Dassel, Germany) at 25V for 1 hr in transfer buffer. Membranes were blocked for 1 h at RT in 10% skim milk powder (SMP) in PBS, washed once in 0.05% Tween20/PBS and twice in PBS. Washed membranes were incubated for 1 hour at RT with either culture supernatant containing the Hev b 6-specific mAb 1A5.4, diluted 1 in 100 in 1% SMP/PBS or human serum, diluted 1 in 5 in 1% SMP/PBS. For mAb detection membranes were washed as above and incubated for 1 h at RT with goat HRP-conjugated anti-mouse Ig (Silenus), diluted 1 in 2000 in 1% SMP/PBS. For IgE detection, membranes were incubated for 1 h at RT with rabbit anti-human IgE (Dako, Denmark) at 1 in 1000 dilution, followed by swine anti-rabbit IgG-HRP conjugate (Promega) at 1 in 1000 dilution. After washing, the binding of 1A5.4 mAb and patient serum IgE to rHev b 6 was detected using hydrogen peroxide/diaminobenzidine solution.

[2] = test system: Hev b 6-specific mAb 1A5.4; assay: Inhibition ELISA: mAb 1A5.4 binding to rHev b 6; design: species or system mouse; details: FIG. 8A
Method: (§1) Inhibition ELISA were carried out to confirm the lack of IgE reactivity of mutant rHev b 6. Various concentrations of mutant rHev b 6 and rHev b 6, ranging from 0.0016 μg/ml to 125 μg/ml were preincubated with patient sera before the sera were used in ELISA to measure IgE binding to rHev b 6. Incubation of sera with KLH was used as a negative control. Values are presented as percent inhibition±standard deviation. (A) The Hev b 6-specific mAb 1A5.4 was incubated with KLH, mutant rHev b 6 and rHev b 6 and mAb binding to rHev b 6 detected. Sera from three latex-allergic, Hev b 6 sensitised subjects A7 (B), A6 (C) and A8 (D) were incubated with KLH, mutant rHev b 6 and rHev b 6 and IgE binding to rHev b 6 detected. The horizontal line indicates the level below which inhibition was considered to non-specific.
In order to confirm the ability of the mutant rHev b 6 to inhibit Ab binding, rHev b 6 and mutant rHev b 6 were used to inhibit binding of the Hev b 6-specific mAb 1A5.4 to rHev b 6 (FIG. 8A).

[3] = test system: IgE binding to rHev b 6; assay: Inhibition ELISA: IgE binding to rHev b 6; design: species or system human; details: for inhibitor concentration required to give 30% inhibition of IgE binding: estimated; for maximum inhibition of IgE binding to rHev b 6: third subject (FIG. 8D), 125 μg/ml inhibitor
Method: as §1
To confirm the lack of IgE reactivity of mutant rHev b 6, inhibition ELISA were performed. In these assays, IgE binding to rHev b 6 was inhibited by preincubation of sera from latex allergic, Hev b 6 reactive subjects with either rHev b 6 or mutant rHev b 6 over a range of concentrations. To determine the level of non-specific inhibition inherent in such an assay, an initial non-specific inhibition assay was performed. The serum of a latex-allergic, Hev b 5 positive subject was incubated with rHev b 6 and mutant rHev b 6 and then the ability of IgE from this serum to bind rHev b 5 in an ELISA was measured. When this assay was undertaken, binding of IgE to rHev b5 was inhibited at a maximum of 20% by rHev b 6 and mutant rHev b 6 (data not shown).

[4] = reducing SDS-PAGE (data not shown)

B1: rHev b 6: recombinant Hev b 6 (prohevein) expressed in E. coli from pPROEX-HTa with 6-His tag (protein)
chain: EQCGRQAGGKLCPNNLCCSQWGWCGSTDEYCSPDHNCQSNCKDSGEGVGGGSASNVLATYHLYNSQDHGWDLNAASAYCSTWDANKPYSWRSKYGWTAFCGPVGAHGQSSCGKCLSVTNTGTGAKTTVRIVDQCSNGGLDLDVNVFRQLDTDGKGYERGHITVNYQFVDCGDSFNPLFSVMKSSVIN
modifications: left off: small tags and cut ends
notes: recombinant Hev b 6 (prohevein) expressed in E. coli from pPROEX-HTa with 6-His tag
[1]; non-reducing SDS-PAGE
  Hev b 6-specific mAb reactivity in Western blotting: reactive
[1]; [4]
  Hev b 6-specific mAb reactivity in Western blotting: reactive
[2]
  inhibition of mAb 1A5.4 binding to rHev b 6: comparable inhibition
[3]
  inhibitor concentration required to give 30% inhibition of IgE binding: 0.01 µg/mL
  maximum inhibition of IgE binding to rHev b 6: 100%
[3]; higher inhibitor concentrations, FIGS. 8B, C and D
  inhibition of IgE binding to rHev b 6: 100%

B2: mutant rHev b 6: rHev b 6 with cysteine to alanine substitution at amino acid 3 of the mature protein (protein)
chain: B1 chain with C3A
modifications: left off: small tags and cut ends
notes: rHev b 6 with cysteine to alanine substitution at amino acid 3 of the mature protein
[2]
  inhibition of mAb 1A5.4 binding to rHev b 6: comparable inhibition
[3]; at 30% inhibition
  fold more inhibitor required to inhibit IgE binding as effectively as rHev b 6: 12,500 fold
[3]
  inhibitor concentration required to give 30% inhibition of IgE binding: 125 µg/mL
  maximum inhibition of IgE binding to rHev b 6: 32%
[3]; two subjects (FIGS. 8B and C), 0.0016 to 125 μg/ml
  inhibition of IgE binding to rHev b 6: failed to inhibit above the level determined for non-specific inhibition

B3: sulphonated rHev b 6: purified rHev b 6 sulphonated in sulphonation buffer to improve solubility (protein)
chain: B1 chain
modifications: left off: small tags and cut ends
[1]; non-reducing SDS-PAGE
  Hev b 6-specific mAb reactivity in Western blotting: reactive
[1]; [4]
  Hev b 6-specific mAb reactivity in Western blotting: reactive
